Results published in patent US20080050387A1, “Non-Androgen Dependent Roles for Androgen Receptor and Non-Androgen Related Inhibitors of Androgen Receptor” (priority 2003, published 2008).
Residue numbers refer to the chain shown, from its start.

B1: f-hRad9: fragment aa 327-391 of hRad9 containing the FXXLF motif (protein, UniProt Q99638 327-391, looked up, fragment)
chain: LSPGPQPPKSPGPHSEEEDEAEPSTVPGTPPPKKFRSLFFGSILAPVRSPQGPSPVLAEDSEGEG
B2: ARA671-550: ARA67 lacking the PEST sequence (protein, UniProt Q92624 1-550, looked up, fragment)
chain: MAAVELEWIPETLYNTAISAVVDNYIRSRRDIRSLPENIQFDVYYKLYQQGRLCQLGSEFCELEVFAKVLRALDKRHLLHHCFQALMDHGVKVASVLAYSFSRRCSYIAESDAAVKEKAIQVGFVLGGFLSDAGWYSDAEKVFLSCLQLCTLHDEMLHWFRAVECCVRLLHVRNGNCKYHLGEETFKLAQTYMDKLSKHGQQANKAALYGELCALLFAKSHYDEAYKWCIEAMKEITAGLPVKVVVDVLRQASKACVVKREFKKAEQLIKHAVYLARDHFGSKHPKYSDTLLDYGFYLLNVDNICQSVAIYQAALDIRQSVFGGKNIHVATAHEDLAYSSYVHQYSSGKFDNALFHAERAIGIITHILPEDHLLLASSKRVKALILEEIAIDCHNKETEQRLLQEAHDLHLSSLQLAKKAFGEFNVQTAKHYGNLGRLYQSMRKFKEAEEMHIKAIQIKEQLLGQEDYEVALSVGHLASLYNYDMNQYENAEKLYLRSIAIGKKLFGEGYSGLEYDYRGLIKLYNSIGNYEKVFEYHNVLSNWNRLRDRQ
B3: ARA671-280: N-terminal region of ARA67, residues 1-280 (protein)
chain: MAAVELEWIPETLYNTAISAVVDNYIRSRRDIRSLPENIQFDVYYKLYQQGRLCQLGSEFCELEVFAKVLRALDKRHLLHHCFQALMDHGVKVASVLAYSFSRRCSYIAESDAAVKEKAIQVGFVLGGFLSDAGWYSDAEKVFLSCLQLCTLHDEMLHWFRAVECCVRLLHVRNGNCKYHLGEETFKLAQTYMDKLSKHGQQANKAALYGELCALLFAKSHYDEAYKWCIEAMKEITAGLPVKVVVDVLRQASKACVVKREFKKAEQLIKHAVYLARDHF
B4: ARA678-140: truncated ARA67 fragment, residues 8-140 (protein)
chain: WIPETLYNTAISAVVDNYIRSRRDIRSLPENIQFDVYYKLYQQGRLCQLGSEFCELEVFAKVLRALDKRHLLHHCFQALMDHGVKVASVLAYSFSRRCSYIAESDAAVKEKAIQVGFVLGGFLSDAGWYSDAE
B5: ARA67281-585: C-terminal region of ARA67, residues 281-585 (protein)
chain: GSKHPKYSDTLLDYGFYLLNVDNICQSVAIYQAALDIRQSVFGGKNIHVATAHEDLAYSSYVHQYSSGKFDNALFHAERAIGIITHILPEDHLLLASSKRVKALILEEIAIDCHNKETEQRLLQEAHDLHLSSLQLAKKAFGEFNVQTAKHYGNLGRLYQSMRKFKEAEEMHIKAIQIKEQLLGQEDYEVALSVGHLASLYNYDMNQYENAEKLYLRSIAIGKKLFGEGYSGLEYDYRGLIKLYNSIGNYEKVFEYHNVLSNWNRLRDRQYSVTDALEDVSTSPQSTEEVVQSFLISQNVEGPSC
B6: AXXLF: hRad9 mutant, F361 converted to Ala (protein, UniProt Q99638 1-391, looked up, variant F361A)
Cell cycle checkpoint control …: MKCLVTGGNVKVLGKAVHSLSRIGDELYLEPLEDGLSLRTVNSSRSAYACFLFAPLFFQQYQAATPGQDLLRCKILMKSFLSVFRSLAMLEKTVEKCCISLNGRSSRLVVQLHCKFGVRKTHNLSFQDCESLQAVFDPASCPHMLRAPARVLGEAVLPFSPALAEVTLGIGRGRRVILRSYHEEEADSTAKAMVTEMCLGEEDFQQLQAQEGVAITFCLKEFRGLLSFAESANLNLSIHFDAPGRPAIFTIKDSLLDGHFVLATLSDTDSHSQDLGSPERHQPVPQLQAHSTPHPDDFANDDIDSYMIAMETTIGNEGSRVLPSISLSPGPQPPKSPGPHSEEEDEAEPSTVPGTPPPKKARSLFFGSILAPVRSPQGPSPVLAEDSEGEG
B7: FXXAA: hRad9 mutant, L364 and F365 converted to Ala (protein, UniProt Q99638 1-391, looked up, variant L364A F365A)
Cell cycle checkpoint control …: B6 Cell cycle checkpoint control … with A361F, L364A, F365A
B8: ARA67281-550: truncated ARA67 fragment, residues 281-550 (protein)
chain: GSKHPKYSDTLLDYGFYLLNVDNICQSVAIYQAALDIRQSVFGGKNIHVATAHEDLAYSSYVHQYSSGKFDNALFHAERAIGIITHILPEDHLLLASSKRVKALILEEIAIDCHNKETEQRLLQEAHDLHLSSLQLAKKAFGEFNVQTAKHYGNLGRLYQSMRKFKEAEEMHIKAIQIKEQLLGQEDYEVALSVGHLASLYNYDMNQYENAEKLYLRSIAIGKKLFGEGYSGLEYDYRGLIKLYNSIGNYEKVFEYHNVLSNWNRLRDRQ
B9: GST-ARA67170-338: GST-fused ARA67 fragment 170-338, which contains the LXXLL motif (protein)
chain: LHVRNGNCKYHLGEETFKLAQTYMDKLSKHGQQANKAALYGELCALLFAKSHYDEAYKWCIEAMKEITAGLPVKVVVDVLRQASKACVVKREFKKAEQLIKHAVYLARDHFGSKHPKYSDTLLDYGFYLLNVDNICQSVAIYQAALDIRQSVFGGKNIHVATAHEDLAY

Assays:
[1] = tested on: AR; experiment: Mammalian two-hybrid assay hRad9 / AR in PC-3 cells; assay type: cell-based, human; conditions: 10 nM DHT; for interaction between AR and full-length hRad9 / interaction between AR and the fragment of hRad9 (aa 327-391): FXXLF motif mutants
Method: (§1) PC-3, CWR22R, and LNCaP cell lines were maintained in […] supplemented with 10% fetal calf serum (FCS). Transient transfection for luciferase assays was carried out in 24-well plates (5×10^4 cells per well) using SuperFect as described previously (Lin, H. K., et al., Embo J 21:4037-48 (2002)). DNA mixtures in transfection assay were indicated in each figure. The total amount of transfected DNA was kept constant (1 μg) by adding the corresponding amounts of empty expression plasmids. After transfection, cells were cultured in […] supplemented with 5% charcoal-stripped FCS in the presence or absence of 10 nM dihydrotestosterone (DHT) for 18 h. Luciferase assays were performed as previously described (Yang, L., et al., J Biol Chem 278:16820-7 (2003)). In Western blotting assays, CWR22R or LNCaP cells were transfected by electroporation using 5×10^6 cells/0.4 ml of RPMI medium containing 2% FCS plus 9 μg of the indicated plasmids. 1 μg of EGFP expression vector was used for transfection efficiency. Electroporation was performed at 250 V and 950 μF using Gene Pulser II (Bio-Rad)
Target sequence in this assay (P10275 with tags, fused parts or gaps DEL79-80/DUP473-473): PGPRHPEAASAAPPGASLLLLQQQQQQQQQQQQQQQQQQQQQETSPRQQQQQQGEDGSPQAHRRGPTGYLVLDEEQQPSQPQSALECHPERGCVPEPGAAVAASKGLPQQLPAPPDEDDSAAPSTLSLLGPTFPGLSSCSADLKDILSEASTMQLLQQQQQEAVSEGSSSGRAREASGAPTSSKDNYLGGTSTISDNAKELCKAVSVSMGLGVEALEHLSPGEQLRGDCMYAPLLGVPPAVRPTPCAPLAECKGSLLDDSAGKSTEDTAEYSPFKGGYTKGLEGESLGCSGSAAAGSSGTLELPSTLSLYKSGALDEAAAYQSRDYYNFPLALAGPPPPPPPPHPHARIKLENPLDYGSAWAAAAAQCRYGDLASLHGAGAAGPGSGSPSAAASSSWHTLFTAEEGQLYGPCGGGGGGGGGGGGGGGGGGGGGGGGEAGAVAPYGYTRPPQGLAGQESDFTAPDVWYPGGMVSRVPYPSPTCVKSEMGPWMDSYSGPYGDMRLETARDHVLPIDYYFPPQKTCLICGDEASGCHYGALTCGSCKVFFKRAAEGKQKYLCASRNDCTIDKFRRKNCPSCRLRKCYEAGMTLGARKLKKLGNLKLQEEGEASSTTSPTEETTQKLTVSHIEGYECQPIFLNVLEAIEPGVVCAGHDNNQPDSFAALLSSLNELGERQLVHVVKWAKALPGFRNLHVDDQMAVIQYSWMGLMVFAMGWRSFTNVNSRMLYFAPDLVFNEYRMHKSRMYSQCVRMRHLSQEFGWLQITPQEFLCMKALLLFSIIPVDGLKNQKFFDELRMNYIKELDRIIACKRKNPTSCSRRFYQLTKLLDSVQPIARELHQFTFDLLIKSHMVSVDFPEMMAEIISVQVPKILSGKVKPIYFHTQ

[2] = tested on: AR (DBD-LBD, LBD, DBD); experiment: Yeast two-hybrid / liquid β-gal assay hRad9 fragment / AR domains; assay type: cell-based, human
Excerpt: The DBD and LBD of AR cDNA was amplified and was cloned into the NdeI and BamHI site of pGBKT7 (Clontech). Yeast strain AH109 was transformed with the vector encoding GAL4 DBD-AR-DBD-LBD fusion and was mated with yeast strain Y187 pretransformed with the human ovary […] cDNA library (Clontech). The yeast clones were selected following the manufacturer's instruction. The positive clones were confirmed by clone lift assay and purified plasmids were retransformed into yeast strain AH109 with bait plasmids. The interaction specificity was further confirmed by liquid […] assay.

[3] = tested on: AR; experiment: AR transactivation reporter gene assay in H1299 cells with ARA67; assay type: cell-based, human; conditions: H1299 cells, 600 ng construct, MMTV-luc
Method: H1299 and COS-1 cells were maintained in Dulbecco's modified Eagle's medium (DMEM) (Life Technologies, Inc.) supplemented with 10% heat inactivated fetal bovine serum (FBS). LNCap cells were maintained in RPMI 1640 supplemented with […]. All media contain 100 units penicillin, 100 μg/ml streptomycin and 2 mM L-glutamine. Cells were seeded to a density of 50-60% confluency for transfection. In transfections where H1299 and COS-1 cells were used, the calcium phosphate precipitation method was used as described (Pan H J, et al. 1999. Endocrine 11:321-327) unless otherwise noted. […] In other reporter gene assays, where ligand treatment was required, cell culture media were changed to DMEM containing 10% charcoal-dextran-stripped FBS (CD-FBS) 2 h before transfection. After 16-18 h transfection, cells were treated with medium containing either vehicle or ligands for another 20-24 h and then cells were harvested. With LNCap cells transfection, the cells were treated with fresh RPMI 1640 containing 10% CD-FBS before transfection with SuperFect performed according to the manufacturer's protocol (Qiagen). After transfection, cells were allowed to recover in fresh RPMI 1640 containing 10% CD-FBS for 8-12 h, and then treated with either vehicle or ligands for another 20-24 h before harvesting. Each experiment was repeated at least three times.
Target sequence in this assay (P10275 with tags, fused parts or gaps DEL79-80/DUP473-473): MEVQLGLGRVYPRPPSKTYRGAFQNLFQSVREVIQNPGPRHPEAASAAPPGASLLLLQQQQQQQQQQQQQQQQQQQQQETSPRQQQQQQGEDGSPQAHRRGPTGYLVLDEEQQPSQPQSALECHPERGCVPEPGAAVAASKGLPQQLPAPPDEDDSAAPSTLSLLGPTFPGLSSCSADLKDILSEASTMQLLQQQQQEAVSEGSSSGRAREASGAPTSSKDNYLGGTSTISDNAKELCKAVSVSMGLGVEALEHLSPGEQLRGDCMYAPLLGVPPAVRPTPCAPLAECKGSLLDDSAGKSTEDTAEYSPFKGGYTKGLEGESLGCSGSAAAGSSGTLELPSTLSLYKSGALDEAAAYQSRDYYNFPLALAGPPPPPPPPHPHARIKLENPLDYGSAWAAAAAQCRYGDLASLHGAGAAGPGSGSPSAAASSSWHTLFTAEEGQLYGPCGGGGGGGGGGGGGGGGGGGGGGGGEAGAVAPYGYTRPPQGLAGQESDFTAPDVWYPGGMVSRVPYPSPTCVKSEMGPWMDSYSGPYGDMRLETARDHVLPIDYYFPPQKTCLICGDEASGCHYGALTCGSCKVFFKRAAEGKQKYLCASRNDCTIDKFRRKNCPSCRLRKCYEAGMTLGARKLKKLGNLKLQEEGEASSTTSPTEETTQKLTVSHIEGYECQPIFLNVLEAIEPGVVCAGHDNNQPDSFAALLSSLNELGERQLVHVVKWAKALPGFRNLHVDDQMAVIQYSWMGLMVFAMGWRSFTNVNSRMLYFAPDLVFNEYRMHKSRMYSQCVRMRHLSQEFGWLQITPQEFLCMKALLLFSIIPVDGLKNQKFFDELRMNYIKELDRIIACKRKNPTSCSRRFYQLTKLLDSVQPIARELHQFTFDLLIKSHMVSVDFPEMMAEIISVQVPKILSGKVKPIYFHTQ

[4] = tested on: AR (ARN, ARDBD, ARLBD); experiment: GST pull-down assay ARA67 / AR; assay type: binding, human
Method: GST-ARN, GST-ARA67 fusion proteins, and GST control protein were expressed in BL21 (DE3)pLysS bacteria strain (Stratagene) and purified with glutathione-Sepharose beads as instructed by the manufacturer (Amersham Pharmacia). In vitro [^35S]methionine-labeled AR, ARN, AR DBD, AR LBD and ARA67 proteins were generated using TNT-coupled Reticulocyte Lysate Systems (Promega). For in vitro interaction, mixtures of glutathione beads bound GST fusion proteins and 5 μl [^35S]methionine-labeled input proteins in 100 μl interaction buffer (20 mM Tris/pH8.0, 60 mM NaCl, 6 mM MgCl2, 1 mM EDTA, 0.05% Nonidet P-40, 1 mM DTT, 8% glycerol, 1 mM PMSF) were incubated in the presence or absence of 10 μM dihydrotestosterone (DHT) on a rotating disk at 4° C. for 2 h. After washing with NETN buffer (20 mM Tris/pH8.0, 100 mM NaCl, 6 mM MgCl2, 1 mM EDTA, 0.5% Nonidet P-40, 1 mM DTT, 8% glycerol, 1 mM PMSF) four times, the bound proteins were separated on 8-13% SDS-PAGE and visualized by autoradiography.

[5] = tested on: AR; experiment: AR transactivation MMTV-LUC assay in PC-3 cells with hRad9; assay type: cell-based, human; conditions: MMTV-LUC, 10 nM DHT
Method: as §1

| Molecule | suppression of AR transactivation by ARA67 fragments [3] | interaction with ARN [4] | other results |
| --- | --- | --- | --- |
| B1 | – | – | interaction with AR [1]: androgen-dependent interactions were detected; interaction with AR LBD ([2]; AH109 yeast cells, presence of androgen): interacted; liquid β-gal assay induction with the AR-DBD-LBD ([2]; yeast, presence of DHT): strong induction |
| B2 | didn't show a stronger suppression effect than full length ARA67 | – | – |
| B3 | better suppressor than ARA67281-550 and ARA67281-585 | relatively weak | – |
| B4 | – | slightly stronger interaction | – |
| B5 | could also suppress AR transactivation | relatively weak | – |
| B6 | – | – | interaction between AR and full-length hRad9 [1]: reduced; interaction between AR and the fragment of hRad9 (aa 327-391) [1]: decreased dramatically |
| B7 | – | – | interaction between AR and full-length hRad9 [1]: reduced; interaction between AR and the fragment of hRad9 (aa 327-391) [1]: decreased dramatically; transcriptional activity of AR [5]: only marginal effect |
| B8 | could also suppress AR transactivation | slightly stronger interaction | – |
| B9 | – | very weak interaction | interaction with AR LBD [4]: no interaction |
